Data taken from PMC9482650 (Nature Communications, 2022).
Square brackets hold non-standard residues; d marks the D form. Ends that are not written are not given here. * marks the point of attachment. Biotin = O=C1N[C@H]2[C@H](CS[C@H]2CCCCC(=O)*)N1; pS = N[C@@H](COP(=O)(O)O)C(=O)O

How the values were obtained:
[1] = biological target: T1, HTLV1 Tax1 PBM (HTLV1, also: biotin attached via linker (not given here)); assay: holdup assay
T1 chain: Biotin-SEKHFRETEV-OH

[2] = biological target: T2, RPS6KA1 PBM (human, also: biotin via linker: TTDS, Ahx or Ado-Ado); assay: holdup assay; biotinylated PBM peptide saturating streptavidin resin, His6-MBP-PDZ (4 µM) in solution, 15 min at room temperature, no washing, filtration; 50 mM TRIS pH 7.5, 300 mM NaCl, 1 mM TCEP; binding intensity converted to a steady-state Kd given as pKd; PDZ in bacterial lysate (LYSC), single (SAPF) or double (DAPF) affinity purified, which one for a given pair is not given
T2 chain: Biotin-RVRKLPSTTL-OH

[3] = biological target: T3, p-3 phosphorylated RPS6KA1 PBM (human, not fully specified (N-terminus); also: N-terminal linker between biotin and peptide, type not given here); assay: as above
T3 chain: RVRKLP[pS]TTL-OH

B1: His6-MBP-SYNJ2BP PDZ (domain or fragment, human, UniProt P57105 13-100, looked up)
chain: EINLTRGPSGLGFNIVGGTDQQYVSNDSGIYVSRIKENGAAALDGRLQEGDKILSVNGQDLKNLLHQDAVDLFRNAGYAVSLRVQHRL
**Q.** What does the source list for B1?
**A.** pKd [1]: 6.04 pKd (-log10 of Kd in M); pKd [2]: 3.82 pKd (-log10 of Kd in M); pKd [3]: 4.48 pKd (-log10 of Kd in M)
